The record followed here is article doi:10.1101/2025.02.17.637997, “Phosphorylation-State Modulated Binding of HSP70: Structural Insights and Compensatory Protein Engineering” (bioRxiv, 2025).

Experiment [1] has as its target T1, CHIP-TPR (21–154) (UniProt Q9UNE7 21-154).
T1 construct: also called extended TPR domain of CHIP
T1 sequence (looked up): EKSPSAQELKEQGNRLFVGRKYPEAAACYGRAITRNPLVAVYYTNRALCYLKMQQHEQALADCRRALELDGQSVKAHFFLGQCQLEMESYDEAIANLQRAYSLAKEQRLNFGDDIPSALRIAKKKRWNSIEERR
Description: biolayer interferometry, peptide on sensor. The note with it: reference: biotin-EEVD peptide; sites T636. A general note: BLI is a label-free optical method that tracks binding on a fibre tip over time.

The target of a further experiment is CHIP (UniProt Q9UNE7). Description: fluorescence polarization titration. Particulars: reference: unphosphorylated EEVD peptide; sites T636.
Experiment [2] relates to LgBiT-HSP70 T636A/D. Description: NanoBiT live-cell interaction, COS-7, CHIP variants with LgBiT-HSP70. Particulars: Fig. 1F. Format: cell-based. The protocol: (§1) HEK293 and COS-7 cells were acquired from the UNC Lineberger Comprehensive Cancer Center Tissue Culture Facility. Cultures were maintained in Dulbecco’s Modified Eagle Medium with 10% fetal bovine serum at 37 °C and 5% CO2. Using the manufacturers’ instructions, X-tremeGENE 9 was used to transfect cells with plasmid DNA except for NanoBiT constructs, in which case we used Lipofectamine 3000 (Thermo Fisher Scientific). Where indicated, twenty-four hours post-transfection, cells were treated with 20 μM MG-132 (Selleck Chemicals) for 6 h or 100 μM cycloheximide (Sigma-Aldrich) for the stated duration.
(§2) NanoBiT Protein: Protein Interaction System (Promega) was used to measure protein-protein interaction data following the manufacturer’s instructions. As previously described, LgBiT-HSP70 and SmBiT-CHIP construct interactions were used as positive controls ([22]). Twenty-four hours post-transfection, the cells were collected, replated in 96-well clear bottom white-sided tissue culture plates, and maintained at 37 °C and 5% CO2 for 45 min. Nano-Glo Live Cell Reagent (Promega) was added, and luminescence was measured using a CLARIOstar microplate reader over 20 minutes. The total area under the maximum luminescence curve was quantified and used to compare changes in HSP70-CHIP interactions relative to the WT-WT conditions.

The subject of the next experiment is HSP70. Description: Co-immunoprecipitation of CHIP variants with HSP70, COS-7. Particulars: Co-IP of MYC-CHIP, Fig. 1I. The format is cell-based. The protocol:
Samples were collected in a lysis buffer composed of 50 mM Tris-HCl (pH 7.4), 150 mM NaCl, 2 mM EDTA, and 1% Triton X-100, supplemented with 1X Halt protease and phosphatase inhibitor (Thermo Scientific). The samples were then sonicated and combined with Laemmli sample buffer (Bio-Rad). The lysates were resolved on 4–15% TGX Stain-Free gels (Bio-Rad) and transferred to PVDF membranes (Bio-Rad). The membranes were blocked in 5% milk and incubated with primary antibodies (Table S3) overnight at 4°C. Following this, HRP-conjugated secondary antibodies (Cell Signaling Technology) were applied. Detection was performed using Lumigen ECL Ultra (Lumigen, tma-100), and the blots were imaged with the ChemiDoc Imaging System (BioRad).
Ezview™ Red Anti-c-Myc Affinity Gel Beads (Sigma-Aldrich) were used for co-immunoprecipitation of myc-tagged proteins. Proteins were eluted via boiling before western blot analysis.

Experiment [3] relates to LgBiT-HSP70 T636A/D. Description: NanoBiT live-cell interaction, HEK-293, CHIP variants with LgBiT-HSP70. The format is cell-based. Particulars: compared with CHIP-WT, Fig. 1E. The protocol:
as §1, §2

The target in another experiment is T2, CHIP-G132N (Homo sapiens, UniProt Q9UNE7, G132N).
T2 construct: Recombinant CHIP-TPR constructs were recombinantly expressed using the pHis//2 CHIP-TPR (21–154) plasmid; His; made in house
T2 sequence (Q9UNE7 21-154 G132N): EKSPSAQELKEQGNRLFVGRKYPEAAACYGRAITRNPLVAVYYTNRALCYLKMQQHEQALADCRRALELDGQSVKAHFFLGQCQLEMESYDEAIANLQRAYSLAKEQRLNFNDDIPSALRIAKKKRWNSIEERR
Description: Biolayer interferometry, CHIP-G132N TPR. Format: binding. The note with it: BLI; CHIP-G132N TPR; Fig. 2E. The protocol: Bio-layer interferometry measured peptide binding using a BLItz instrument (FortéBio, Sartorius) with streptavidin (SA) sensors. Biotin-EEVD and biotin-pEEVD were solubilized in 20 mM HEPES, 150 mM NaCl, pH 7.0. Affinity measurements were made using the advanced kinetic protocol within the BLItz Pro system software. Biosensors were hydrated for ten minutes in assay buffer comprising 20 mM HEPES, 150 mM NaCl, 5 mM β-mercaptoethanol, pH 7.2. For each affinity measurement, a new, hydrated biosensor was placed on the BLItz tip, and the “Initial Baseline” step was completed by incubation for 30 seconds in 500 μl assay buffer in an opaque black microcentrifuge tube (Argos Technologies). Peptides were loaded during the “Loading Step” by incubating the tip in 4 μl of either peptide for 60 seconds. The “Baseline step” was then conducted by incubation for 30 seconds in 500 μl assay buffer in an opaque black microcentrifuge tube. The “Association step” was performed by incubating the tip in 4 μl of the appropriate TPR protein construct, at protein concentrations of 1 to 25 μM, in assay buffer in an opaque black microcentrifuge tube for 120 seconds. […] Affinities (Kd) were calculated by the BLItz Pro software as Kd=koff/kon, where koff and kon were determined by individual fits to the “dissociation step” and “association step,” respectively, for each run.

A further experiment relates to HSC70. Description: Cell-free ubiquitination of HSC70 by CHIP. The format is biochemical, human. Particulars: 100 nM Uba1, 1 μM UBE2D2, 200 nM Hsc70, 100 μM Ub, 1 μM CHIP, pH 8.0, 15 min, room temperature; three experiments; p = 0.0774; Fig. 1K. The protocol: Ubiquitination assays were conducted using recombinant human HSC70, fluorescently tagged on its N-terminus. All assay components except ubiquitin were premixed on ice in a BSA-containing buffer (20 mM HEPES, pH 8.0; 200 mM NaCl; 0.5 mg/mL BSA). Reactions were initiated by adding ubiquitin and were allowed to proceed at room temperature unless specified otherwise. The reactions contained a final concentration of 100 nM Uba1, 1 μM UBE2D2, 200 nM Hsc70, 100 μM Ub, 5 mM MgCl2-ATP, and 1 μM CHIP. The reactions proceeded for 15 minutes before being quenched with SDS loading buffer. The quenched samples were separated by molecular weight via SDS-PAGE in non-reducing conditions using GenScript SurePAGE 4–12% gels. The CHIP-dependent ubiquitination of Hsc70 was visualized and quantified through fluorescent scanning on an Amersham Typhoon 5.

Experiment [4] deals with T3, recombinant full-length CHIP-WT (UniProt Q9UNE7 1-303).
T3 chain: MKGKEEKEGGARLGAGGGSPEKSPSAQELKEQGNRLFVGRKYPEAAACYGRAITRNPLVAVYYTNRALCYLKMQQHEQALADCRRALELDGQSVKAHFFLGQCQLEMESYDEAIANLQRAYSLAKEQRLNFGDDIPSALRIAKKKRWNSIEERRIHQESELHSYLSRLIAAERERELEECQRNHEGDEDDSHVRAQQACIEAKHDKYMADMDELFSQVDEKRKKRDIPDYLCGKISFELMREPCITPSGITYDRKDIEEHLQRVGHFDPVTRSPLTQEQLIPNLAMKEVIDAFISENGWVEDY
Description: FP.

Experiment [5] deals with recombinant full-length CHIP-G132N (UniProt Q9UNE7 1-303, G132N). Description: FP.
The target of experiment [6] is T4, CHIP domain fragment: TPR with the coiled-coil domain.
T4 chain: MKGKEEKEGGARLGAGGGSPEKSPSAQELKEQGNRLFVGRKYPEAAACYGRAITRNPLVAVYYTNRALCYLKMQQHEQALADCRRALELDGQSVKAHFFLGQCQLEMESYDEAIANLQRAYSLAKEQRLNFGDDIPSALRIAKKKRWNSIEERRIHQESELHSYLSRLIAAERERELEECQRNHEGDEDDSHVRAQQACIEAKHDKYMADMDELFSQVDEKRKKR
Description: FP.

The target of experiment [7] is recombinant full-length CHIP-K30A (UniProt Q9UNE7 1-303, K30A). Description: FP.
Experiment [8] concerns the target T5, recombinant full-length CHIP-WT (UniProt Q9UNE7 1-303).
T5 sequence (looked up): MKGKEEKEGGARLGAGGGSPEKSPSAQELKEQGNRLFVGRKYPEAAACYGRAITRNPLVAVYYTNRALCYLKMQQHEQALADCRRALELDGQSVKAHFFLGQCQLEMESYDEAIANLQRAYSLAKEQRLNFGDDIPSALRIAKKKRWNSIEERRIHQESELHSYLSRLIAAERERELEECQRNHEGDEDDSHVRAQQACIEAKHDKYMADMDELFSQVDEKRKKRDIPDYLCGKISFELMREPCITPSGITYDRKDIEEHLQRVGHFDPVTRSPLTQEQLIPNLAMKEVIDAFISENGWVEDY
Description: fluorescence polarisation; 20 nM N-terminally FITC-labelled peptide, recombinant CHIP constructs at increasing concentrations, 30 minutes at room temperature; one site/total binding fit with Bmax constrained to 100. Particulars: both partners purified. (In general: Polarisation of emitted light reports the rotation of a fluorescent probe.)

Experiment [9] concerns the target T1, CHIP-TPR (21–154). The experiment is described as above. Particulars: both partners purified.
Experiment [10] concerns the target T6, recombinant full-length CHIP-G132N (UniProt Q9UNE7 1-303, G132N).
T6 construct: CHIP, full-length recombinant protein with G132N
T6 sequence (looked up): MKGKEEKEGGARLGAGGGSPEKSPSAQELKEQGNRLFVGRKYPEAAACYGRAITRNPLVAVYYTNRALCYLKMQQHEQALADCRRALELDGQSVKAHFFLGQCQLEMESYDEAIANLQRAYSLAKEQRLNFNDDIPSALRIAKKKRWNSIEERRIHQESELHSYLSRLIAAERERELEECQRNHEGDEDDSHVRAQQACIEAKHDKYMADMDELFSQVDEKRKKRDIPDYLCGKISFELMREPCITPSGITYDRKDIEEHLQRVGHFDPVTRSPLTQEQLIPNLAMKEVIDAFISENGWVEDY
The experiment is described as above. Particulars: both partners purified.

The Kd is the constant that tells how readily two partners part at equilibrium.

Where “and” joins values, the source holds several entries; their conditions need not be identical. Equal values may be shown once. Entries after “also recorded” stand apart in the source; their conditions may differ. Ends that are not written are not given here. * marks the point of attachment. FITC = O=C1OC2(c3ccc(O)cc3Oc3cc(O)ccc32)c2ccc(NC(=S)*)cc21; Ahx = NCCCCCC(=O)O

Consider “HSP70 C-terminal tail (from UniProt P0DMV8) biotin-pEEVD (pT636) peptide”, for which the fold change result with CHIP-TPR (21–154) [1] was “weaker”.

For “HSP70 C-terminal tail (from UniProt P0DMV8) pEEVD (pT636) peptide”, the fold change entry in the experiment with CHIP is listed as “weaker”.

B1: CHIP-K30A: substitution known to disrupt the ability of CHIP's TPR domain to bind EEVD motifs (protein)
chain: MKGKEEKEGGARLGAGGGSPEKSPSAQELAEQGNRLFVGRKYPEAAACYGRAITRNPLVAVYYTNRALCYLKMQQHEQALADCRRALELDGQSVKAHFFLGQCQLEMESYDEAIANLQRAYSLAKEQRLNFGDDIPSALRIAKKKRWNSIEERRIHQESELHSYLSRLIAAERERELEECQRNHEGDEDDSHVRAQQACIEAKHDKYMADMDELFSQVDEKRKKRDIPDYLCGKISFELMREPCITPSGITYDRKDIEEHLQRVGHFDPVTRSPLTQEQLIPNLAMKEVIDAFISENGWVEDY
Take B1: the “luminescence of CHIP variant with HSP70 constructs” value in the experiment on LgBiT-HSP70 T636A/D [2] was “limited luminescence detected”. In the experiment with HSP70, the “co-precipitation of HSP70 by CHIP variant” value was “failed to precipitate appreciable amounts of HSP70 construct above background levels”. Moreover, the “luminescence of CHIP variant with HSP70-T636A/D” value with LgBiT-HSP70 T636A/D [3] is given as “robust decrease in luminescence”.

B2: CHIP-G132N: engineered CHIP variant to restore binding affinity to phosphorylated HSP70 (protein)
chain: MKGKEEKEGGARLGAGGGSPEKSPSAQELKEQGNRLFVGRKYPEAAACYGRAITRNPLVAVYYTNRALCYLKMQQHEQALADCRRALELDGQSVKAHFFLGQCQLEMESYDEAIANLQRAYSLAKEQRLNFNDDIPSALRIAKKKRWNSIEERRIHQESELHSYLSRLIAAERERELEECQRNHEGDEDDSHVRAQQACIEAKHDKYMADMDELFSQVDEKRKKRDIPDYLCGKISFELMREPCITPSGITYDRKDIEEHLQRVGHFDPVTRSPLTQEQLIPNLAMKEVIDAFISENGWVEDY
In the case of B2, the “co-precipitation of HSP70 by CHIP variant” value in the experiment on HSP70 is “did not override the effect of the HSP70-T636D phosphomimetic”. For the same molecule, in the experiment on LgBiT-HSP70 T636A/D [3], the “luminescence of CHIP variant with HSP70-T636A/D” value is recorded as “lower luminescence”. The “effect on binding affinity towards phosphorylated EEVD tail” value in the experiment with CHIP-G132N was “rescued the binding affinity”. Besides, in the experiment with HSC70, the “ubiquitination of HSC70” value was “not different; also recorded: trend towards decreased ligase activity”.

B3: N-FITC-Ahx-GSGPTIEEVD (peptide)
peptide: {FITC-Ahx}-GSGPTIEEVD
notes: C-terminal tail of HSP70; tracer of the fluorescence polarisation assay; also called HSP70 peptide tracer; source: synthetic peptide (Lifetein or Genscript)
With B3, the Kd is 6.5 µM and 7 µM in [4]; 9.2 µM in [5]; 28 µM in experiment [6]; 66 µM in experiment [7]. Further, the binding result (in experiment [8]; in the experiment with CHIP-TPR (21–154) [9]; in experiment [10]) was “binds” each time.
